Source: patent US20260250420A1 (SICHUAN KELUN BIOTECH BIOPHARMACEUTICAL, published 2026)

Biological target: T1, human PTK7 protein (extracellular sequence of human PTK7 with C-terminal 6×His tag) (human, UniProt Q13308 31-704)
T1 construct: extracellular domain; Expressed transiently in HEK293 cells; also called human PTK7-His; human PTK7-His protein
T1 sequence: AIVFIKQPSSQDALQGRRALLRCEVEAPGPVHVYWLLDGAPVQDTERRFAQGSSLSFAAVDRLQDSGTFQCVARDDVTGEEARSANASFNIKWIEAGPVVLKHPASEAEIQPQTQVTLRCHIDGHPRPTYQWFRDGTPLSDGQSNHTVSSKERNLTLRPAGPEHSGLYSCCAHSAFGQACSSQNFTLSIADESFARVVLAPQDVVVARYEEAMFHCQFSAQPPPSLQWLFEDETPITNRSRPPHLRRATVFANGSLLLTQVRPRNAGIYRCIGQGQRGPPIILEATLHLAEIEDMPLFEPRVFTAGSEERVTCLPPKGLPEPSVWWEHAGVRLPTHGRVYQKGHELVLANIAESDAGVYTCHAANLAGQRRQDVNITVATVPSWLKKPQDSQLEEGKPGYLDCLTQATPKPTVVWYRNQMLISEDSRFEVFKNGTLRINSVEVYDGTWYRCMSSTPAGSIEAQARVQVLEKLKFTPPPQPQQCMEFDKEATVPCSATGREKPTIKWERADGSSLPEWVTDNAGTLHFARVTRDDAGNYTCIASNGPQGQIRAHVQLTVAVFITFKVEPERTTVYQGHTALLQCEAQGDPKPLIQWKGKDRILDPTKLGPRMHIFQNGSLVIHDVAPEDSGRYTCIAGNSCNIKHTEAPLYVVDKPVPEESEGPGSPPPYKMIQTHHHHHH
Experiment: ELISA, coated human PTK7 protein 1 µg/ml
Protocol: Original data was imported into software for nonlinear curve fitting, and EC₅₀ of binding of each antibody to human PTK7 and monkey PTK7 was calculated, respectively. As shown in Table 1 and FIGS. 1A-1B, the screened antibodies could be bound to the human and monkey PTK7 proteins with affinity higher than that of the control antibody Hu24.

B1: Hu24 (PTK7 control antibody, taken from Hu24 in the Patent CN201580030255) (antibody)
chain 1: QVQLVQSGPEVKKPGASVKVSCKASGYTFTDYAVHWVRQAPGKRLEWIGVISTYNDYTYNNQDFKGRVTMTRDTSASTAYMELSRLRSEDTAVYYCARGNSYFYALDYWGQGTSVTVSS
chain 2: EIVLTQSPATLSLSPGERATLSCRASESVDSYGKSFMHWYQQKPGQAPRLLIYRASNLESGIPARFSGSGSGTDFTLTISSLEPEDFAVYYCQQSNEDPWTFGGGTKLEIK
- EC50: 0.0457 µg/mL
